Assay results reported in patent US20090311237A1, “Combination therapy using a soluble hyaluronidase and a bisphosphonate” (priority 2008, published 2009).

Assays:
Sprague Dawley rats = assay: Injection site reactions (gross ISR incidence, lesion area) after intradermal injection of zoledronic acid with or without rHuPH20; format: in vivo, rat; conditions: for shift of half maximal effect (EC50) of ZA concentration vs lesion area curve: with vs without 10,000 U/mL rHuPH20
Description: A rodent model of local injection site injury caused by ZA injection was employed for the study. […] Injection into the dermis facilitates external visualization and assessment of the irritant.
Nine to ten week old female Sprague Dawley rats, having approximate body weight of 200-250 grams, were employed for the study. One day prior to injection, rats were shaved and hair on the back and flank area were removed by Nair® cream (exposure less than 1 min to depilation cream) followed by deep wash with warm tap water. On the day of dosing, all rats were injected intradermally in flank area (one or two injection spots per side), with 0.1 or 0.2 mL as indicated of zoledronic acid solution, with or without rHuPH20, at each corresponding concentration as shown in study design table. Injection site appearance was observed and quantified by blind assessment each day following the injection until the end of the study, at which time animals were sacrificed and the skin around the dosing area as well as a part of the skin that was not effected by the dosing were collected and fixed in 10% neutral buffered formalin (NBF) and further embedded in paraffin, 5 μm sections were cut for H&E stain and histopathology evaluation.
Lesion area was calculated by the following formula: W×L×¼π. Quantitative results were analyzed using one-way analysis of variance (ANOVA) method, followed by Dunnett's comparison method (Prizm 4 program). The probability values of less than 0.05 (two-tailed) were used as the critical level of significance for all tests. Groups with a sample size of two were excluded from analysis. If the sample size was 2 for the control group, there were no statistical analyses at that interval for any of the groups. Histopathologic findings were characterized by semi-quantitative analysis of necrosis and infiltration in the skin tissue. The incidences of each finding were compared with control groups by Chi-square test.
Prior to ZA intradermal injection, rats were randomized by body weight into 7 groups of 1 or 2 rats per group (Table 2). Rats were injected with either 0.1 mL or 0.2 mL of each corresponding concentration intradermally at two separate locations on each shaved flank side for a total of 4 injections for each animal. Injection sites were observed daily post-injection for four days. Pictures of injection site reaction (ISR) area were captured by digital camera and lesion area was scored for induration, erythema, or ulceration. Two perpendicular diameters (width & length) of injection site lesion were measured by microcaliper. The lesion area was defined as the area bounded by the outer edge of the erythemic zone. Upon completion of the study, the animals were euthanized and skin at the injection site and from an untreated area of the back of the rat were excised, mounted flat onto a piece of cardboard, and placed in 10% NBF.
A series of experiments were conducted in which various dosing concentrations of rHuPH20 were tested for the ability to reduce acute injection site lesions. Prior to ZA intra-dermal injection, rats were randomized by body weight into 11 groups of 2 rats per group. Rats were injected intradermally with 0.1 mL of each co-formulated solution as shown in Table 5 and observed daily with ISR development assessed as in Section B. Four days after injection, rats were sacrificed and the skin at the injection site as well as untreated skin from the back was excised, mounted flat onto a piece of cardboard, and placed in 10% NBF.
Prior to ZA intra-dermal injection, rats were randomized by body weight into 6 groups of 3 rats per group (Table 6). Rats were intradermally injected with 0.1 mL of each corresponding co-formulated solution at two separate locations, two on each shaved flank side, for a total of 4 injections for each animal. Injection sites were observed daily with ISR development assessed as in Section B for 6 days. […]

[1] = Hyaluronidase activity microturbidity (turbidometric) assay; format: biochemical; conditions: purified soluble rHuPH20 (Gen1, 5 L bioreactor); USP reference standard
Description: Hyaluronidase activity can be assessed using methods well known in the art. In one example, activity is measured using a microturbidity assay. This is based on the formation of an insoluble precipitate when hyaluronic acid binds with serum albumin. The activity is measured by incubating hyaluronidase with sodium hyaluronate (hyaluronic acid) for a set period of time (e.g. 10 minutes) and then precipitating the undigested sodium hyaluronate with the addition of acidified serum albumin. The turbidity of the resulting sample is measured at 640 nm after an additional development period. […] Following incubation with hyaluronidase, the residual biotinylated hyaluronic acid substrate is detected using an avidin-peroxidase reaction, and compared to that obtained following reaction with hyaluronidase standards of known activity.
Hyaluronidase activity of soluble rHuPH20 in samples such as cell cultures, purification fractions and purified solutions was determined using a turbidometric assay, which based on the formation of an insoluble precipitate when hyaluronic acid binds with serum albumin. The activity is measured by incubating soluble rHuPH20 with sodium hyaluronate (hyaluronic acid) for a set period of time (10 minutes) and then precipitating the undigested sodium hyaluronate with the addition of acidified serum albumin. […]

B1: rHuPH20: soluble form of human PH20 hyaluronidase recombinantly expressed in Chinese Hamster Ovary (CHO) cells (protein, listed as Homo sapiens)
chain: LNFRAPPVIPNVPFLWAWNAPSEFCLGKFDEPLDMSLFSFIGSPRINATGQGVTIFYVDRLGYYPYIDSITGVTVNGGIPQKISLQDHLDKAKKDITFYMPVDNLGMAVIDWEEWRPTWARNWKPKDVYKNRSIELVQQQNVQLSLTEATEKAKQEFEKAGKDFLVETIKLGKLLRPNHLWGYYLFPDCYNHHYKKPGYNGSCFNVEIKRNDDLSWLWNESTALYPSIYLNTQQSPVAATLYVRNRVREAIRVSKIPDAKSPLPVFAYTRIVFTDQVLKFLSQDELVYTFGETVALGASGIVIWGTLSIMRSMKSCLLLDNYMETILNPYIINVTLAAKMCSQVLCQEQGVCIRKNWNSSDYLHLNPDNFAIQLEKGGKFTVRGKPTLEDLEQFSEKFYCSCYSTLSCKEKADVKDTDAVDVCIADGVCIDAFLKPPMETEEPQIFY
modifications: soluble rHuPH20 1-447
notes: soluble form of human PH20 hyaluronidase recombinantly expressed in Chinese Hamster Ovary (CHO) cells
For B1, the “rHuPH20 concentration with maximal effect on ISR formation” value (Sprague Dawley rats; rat ID model, preliminary experiments) was 10,000 U/mL, the “suppression of injection site lesion formation” value (Sprague Dawley rats; rat ID, 10,000 U/mL rHuPH20 co-formulated with ZA up to 0.05 mg/mL) was “complete suppression” and the “threshold of rHuPH20 in lesion area reduction” value (Sprague Dawley rats; rat ID, all ZA concentrations tested (0.05 to 0.4 mg/ml)) was 100 U/mL. For the same molecule, the “rHuPH20 concentration at which maximal activity was reached” value (Sprague Dawley rats; rat ID, regardless of ZA concentration (0.05 to 0.4 mg/ml)) was 1000 U/mL, the “shift of half maximal effect (EC50) of ZA concentration vs lesion area curve” value (shortened to “shift of half maximal effect”) (Sprague Dawley rats; rat ID, day 2) was “approximately 2.4 fold” and the “shift of half maximal effect” value (Sprague Dawley rats; rat ID, day 3) was roughly 3.3 fold. For the same molecule, the “shift of half maximal effect” value (Sprague Dawley rats; rat ID, day 4) was roughly 5.7 fold and the specific activity [1] was > 65,000 USP Units/mg protein.
